Consider one molecule from EP4011904A1 (Bayer Aktiengesellschaft, dated 2022).

Positions of bridges follow the written chain, without caps; N, C: chain ends.

Common to all, as to assay: cell-based or functional assay
For assay [1], the target named is T1, recombinant human MASP1 (amino acids 297-699, C-terminal His Tag) (human, UniProt P48740 297-699).
T1 sequence: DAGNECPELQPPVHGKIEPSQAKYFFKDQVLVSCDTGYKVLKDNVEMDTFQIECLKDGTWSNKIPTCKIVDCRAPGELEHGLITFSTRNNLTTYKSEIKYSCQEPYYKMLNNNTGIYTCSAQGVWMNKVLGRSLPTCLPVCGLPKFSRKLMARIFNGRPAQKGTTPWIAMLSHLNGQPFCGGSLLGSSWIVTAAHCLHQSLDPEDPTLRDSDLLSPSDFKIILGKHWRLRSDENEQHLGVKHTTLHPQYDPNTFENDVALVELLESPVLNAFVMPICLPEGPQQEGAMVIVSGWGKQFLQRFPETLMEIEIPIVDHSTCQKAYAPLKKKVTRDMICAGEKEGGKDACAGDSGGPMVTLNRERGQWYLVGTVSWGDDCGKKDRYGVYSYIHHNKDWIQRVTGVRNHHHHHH

The target in assay [2] is recombinant human MASP2 (amino acids 297-686, C-terminal His Tag) (human, UniProt O00187 297-686).
recombinant human MASP2 (amino acids 297-686, C-terminal His Tag), sequence (O00187 other isoform, or with tags, fused parts or gaps limits assumed, form in doubt): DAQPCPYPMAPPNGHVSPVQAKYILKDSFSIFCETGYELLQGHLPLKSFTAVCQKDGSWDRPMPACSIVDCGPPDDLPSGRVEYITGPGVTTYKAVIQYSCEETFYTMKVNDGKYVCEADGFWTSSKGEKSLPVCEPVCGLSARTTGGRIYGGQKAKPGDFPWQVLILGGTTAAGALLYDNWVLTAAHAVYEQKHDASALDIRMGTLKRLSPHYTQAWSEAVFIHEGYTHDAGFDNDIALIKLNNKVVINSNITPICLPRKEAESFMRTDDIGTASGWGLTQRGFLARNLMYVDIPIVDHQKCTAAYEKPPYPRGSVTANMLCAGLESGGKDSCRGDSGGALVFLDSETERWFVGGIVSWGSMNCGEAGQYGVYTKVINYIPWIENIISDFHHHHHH
Assay [3] addresses T2, recombinant rat MASP1 (amino acids 302-704, C-terminal His Tag) (rat, UniProt Q8CHN8 302-704).
T2 sequence: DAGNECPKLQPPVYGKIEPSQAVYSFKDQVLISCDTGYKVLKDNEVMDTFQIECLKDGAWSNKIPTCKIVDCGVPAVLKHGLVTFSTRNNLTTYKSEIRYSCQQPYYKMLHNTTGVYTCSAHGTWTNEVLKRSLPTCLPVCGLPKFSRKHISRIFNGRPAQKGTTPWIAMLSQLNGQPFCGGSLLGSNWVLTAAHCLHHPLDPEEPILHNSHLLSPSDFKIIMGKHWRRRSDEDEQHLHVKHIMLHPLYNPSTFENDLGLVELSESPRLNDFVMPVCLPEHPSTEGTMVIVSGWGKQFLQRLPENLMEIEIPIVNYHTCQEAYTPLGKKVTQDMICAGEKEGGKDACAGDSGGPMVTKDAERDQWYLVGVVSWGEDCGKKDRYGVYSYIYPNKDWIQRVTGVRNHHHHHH

Assay [4] addresses recombinant rat MASP2 (amino acids 296-685, C-terminal His Tag) (rat, UniProt Q9JJS8 296-685).

recombinant rat MASP2 (amino acids 296-685, C-terminal His Tag), sequence (Q9JJS8 other isoform, or with tags, fused parts or gaps limits assumed, form in doubt): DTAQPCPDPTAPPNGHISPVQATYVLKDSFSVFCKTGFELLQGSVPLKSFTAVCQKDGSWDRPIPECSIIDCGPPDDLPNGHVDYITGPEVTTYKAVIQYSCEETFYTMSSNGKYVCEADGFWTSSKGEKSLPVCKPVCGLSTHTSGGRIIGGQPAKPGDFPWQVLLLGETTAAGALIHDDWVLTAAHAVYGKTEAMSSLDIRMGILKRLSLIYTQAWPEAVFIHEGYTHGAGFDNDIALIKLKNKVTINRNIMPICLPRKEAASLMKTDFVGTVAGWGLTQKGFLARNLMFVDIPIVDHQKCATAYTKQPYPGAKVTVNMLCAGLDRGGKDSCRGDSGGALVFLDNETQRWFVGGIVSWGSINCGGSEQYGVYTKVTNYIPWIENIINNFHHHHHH

B1: Bicyclic SFTI-1: G**RC+TKSIPPIC+FPD** (peptide)
peptide: cyclo(GRCTKSIPPICFPD)
modifications: disulfide 3-11; also: TFA salt
For B1, the “human MASP1 IC50” value in assay [1] is over 3000 nM. Besides, the “human MASP2 IC50” value in assay [2] was over 3000 nM. In addition, the “rat MASP1 IC50” value in assay [3] worked out at 1000 nM. The “rat MASP2 IC50” value in assay [4] was found to be 1000 nM.
